Source: patent US20030119102A1

T1: rat Kv4.2 α-subunit (rat) (UniProt Q63881)
T1 sequence (looked up): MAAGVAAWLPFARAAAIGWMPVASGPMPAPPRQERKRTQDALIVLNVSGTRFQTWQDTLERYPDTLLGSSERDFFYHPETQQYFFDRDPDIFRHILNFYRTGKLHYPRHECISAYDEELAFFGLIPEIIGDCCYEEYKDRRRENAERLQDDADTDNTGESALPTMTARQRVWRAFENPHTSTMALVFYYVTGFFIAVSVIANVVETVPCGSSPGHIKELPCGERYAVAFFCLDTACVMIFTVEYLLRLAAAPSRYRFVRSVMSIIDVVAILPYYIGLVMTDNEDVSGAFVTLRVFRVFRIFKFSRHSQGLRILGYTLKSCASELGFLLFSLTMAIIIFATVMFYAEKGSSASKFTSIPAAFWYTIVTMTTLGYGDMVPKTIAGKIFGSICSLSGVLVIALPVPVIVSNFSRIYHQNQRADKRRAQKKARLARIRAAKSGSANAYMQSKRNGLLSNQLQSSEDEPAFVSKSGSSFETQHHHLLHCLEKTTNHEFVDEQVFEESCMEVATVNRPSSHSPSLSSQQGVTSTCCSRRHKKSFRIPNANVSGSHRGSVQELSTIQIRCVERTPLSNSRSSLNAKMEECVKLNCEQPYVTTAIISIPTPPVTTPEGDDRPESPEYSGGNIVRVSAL


Target: T1, rat Kv4.2 α-subunit (rat)
Experiment: cell-based or functional assay

Inactivation time constant (ms, at 50 mV), CHO cells (rKv4.2 + vector: 28.2) [ms]	Peak Current (nA/cell at 50 mV), CHO cells, patch clamp (rKv4.2 + vector: 0.60) [nA/cell]	Peak Current Density (pA/pF at 50 mV), CHO cells (rKv4.2 + vector: 25.5) [pA/pF]	Recovery from Inactivation Time constant, CHO cells (rKv4.2 + vector: 272.2) [ms]	Binder
95.1	3.3	197	49.5	KChIP2 (9ql) (protein, UniProt Q9NS61 1-270, looked up, species assumed) A-type potassium channel modulatory protein KCNIP2: MRGQGRKESLSDSRDLDGSYDQLTGHPPGPTKKALKQRFLKLLPCCGPQALPSVSETLAAPASLRPHRPRLLDPDSVDDEFELSTVCHRPEGLEQLQEQTKFTRKELQVLYRGFKNECPSGIVNEENFKQIYSQFFPQGDSSTYATFLFNAFDTNHDGSVSFEDFVAGLSVILRGTVDDRLNWAFNLYDLNKDGCITKEEMLDIMKSIYDMMGKYTYPALREEAPREHVESFFQKMDRNKDGVVTIEEFIESCQKDENIMRSMQLFDNVI
67.2	3.5	162	126	KChIP3 (p19) (protein, UniProt Q9Y2W7 1-256, looked up, species assumed) Calsenilin: MQPAKEVTKASDGSLLGDLGHTPLSKKEGIKWQRPRLSRQALMRCCLVKWILSSTAPQGSDSSDSELELSTVRHQPEGLDQLQAQTKFTKKELQSLYRGFKNECPTGLVDEDTFKLIYAQFFPQGDATTYAHFLFNAFDADGNGAIHFEDFVVGLSILLRGTVHEKLKWAFNLYDINKDGYITKEEMLAIMKSIYDMMGRHTYPILREDAPAEHVERFFEKMDRNQDGVVTIEEFLEACQKDENIMSSMQLFENVI
